doi:10.1101/2025.03.14.643221
pKd: −log10 of the molar value. Blank lines part the entries; values can stand above or below the substance they belong to.

Key:
[1] = biological target: SalEnt LmuB, SMC-like (Rad50-like) ABC ATPase (Salmonella enterica subsp. enterica serovar Tennessee (strain TXSC_TXSC08-19)); assay: cryo-EM structure
[2] = biological target: SalEnt LmuA(K68A), catalytically dead nuclease effector, tag cleaved (Salmonella enterica subsp. enterica serovar Tennessee (strain TXSC_TXSC08-19)); assay: cryo-EM structure
[3] = tested on: LmuA(K68A), LmuA-KA;LmuB;LmuC; assay: fluorescence anisotropy

stoichiometry N [1]: 2
Substance: SalEnt LmuB, SMC-like (Rad50-like) ABC ATPase (natural protein)

Substance: SalEnt LmuA(K68A), catalytically dead nuclease effector, tag cleaved (enzyme)
stoichiometry N [2]: 4

Substance: 40-mer dsDNA 6-FAM
pKd [3]: 6.74
